From publication PMC3267858 (Nature, 2012)

B1: C-linker/CNBHD of zebrafish ELK channel (amino acids Q543-L750) (domain or fragment, Danio rerio (zebrafish), UniProt A8WHX9 543-750, looked up)
chain: QRMYSRRSLYHTRTKDLKDFIRVHRLPKALAQRMLECFQTTWSVNNGIDVSELLKDFPDELRADIAMHLNKELLQLPLFESASRGCLRSLSLIIKTSFCAPGEFLIRQGDALQAIYFVCSGSMEVLKDNTVLAILGKGDLIGSDSLTKEQVIKTNANVKALTYCDLQYISLKGLREVLRLYPEYAQKFVSEIQHDLTYNLREGSGADL
B2: GFP-tagged C-linker/CNBHD of zELK channels (amino acids Q543-L750) (domain or fragment, Danio rerio (zebrafish), UniProt A8WHX9 543-750, looked up)
chain: B1 chain

Tests used:
[1] = target: the molecule itself; assay: crystal structure
[2] = target: the molecule itself; assay: SEC

Protein	stoichiometry N [1]	stoichiometry N [2]
B1	2	
B2		2
